# According to the supplement of paper PMC10567573:
# B1: TOR1AIP2 (parent)
# chain: YKYCDHENAAFKDVALVLTVLLEE
# Variants of: B1
# Experiment: protein stability index of a GFP-peptide fusion (GPS, HEK-293T) (PSI 1-6); higher = more stable
# Conditions: c terminus: a fixed tail appended
# 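Note: lentivirally expressed fusions sorted by FACS into six bins by GFP to DsRed ratio, PSI derived from sequencing read proportions per bin multiplied by bin number.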
row,Variant,protein stability index
1,T19N,2.25
2,T19D,1.3
3,T19K,4.43
4,T19L,3.88
5,T19M,2.87
6,T19H,1.67
7,T19P,1.74
8,T19F,2.68
9,T19C,5.95
10,T19R,4.55
11,L21T,4.25
12,L21G,1.05
13,L21P,1.73
14,L21S,1.5
15,L21M,2.03
16,L21W,2.84
17,L21I,2.99
18,L21D,2.29
19,L21C,1.47
20,L21Q,1.73
21,V20S,1.41
22,V20Y,3.45
23,V20G,2.83

row,Variant,protein stability index
1,V20Q,1.56
2,V20E,1.73
3,V20A,1.06
4,V20K,2.03
5,V20D,2.21
6,V20C,2.82
7,V20M,4.6
8,V20T,2.03
9,V20N,2.29
10,V20R,2.03
11,V20H,1.46
12,V20P,2.23
13,E24S,3.26
14,E24H,3.71
15,E24K,2.19
16,E24N,3.74
17,E24R,3.2
18,E24I,3.78
19,E24Y,2.58
20,E24D,2.86
21,E24A,2.84
22,E24F,3.27
23,L22D,2.07

row,Variant,protein stability index
1,L22Q,1
2,L22Y,3.23
3,L22A,3.63
4,L22S,1.12
5,L22R,2.7
6,L22H,2.53
7,L22N,3.49
8,L18Y,1.43
9,L18Q,3.16
10,L18N,3.26
11,L18S,3.57
12,L18P,3.09
13,L18K,3.17
14,L18T,1.96
15,L18R,2.16
16,E23Q,2.07
17,E23N,2.26
18,E23H,2.89
19,E23L,5.46
20,E23I,2.81
21,E23P,4
22,E23A,3.33
23,E23C,4.77
